Residue numbers refer to the chain shown, from its start. Values belong to the binder of their own block, whether it stands above or below them.
How the values were obtained:
[1] = molecular target: T1, human TNFR2 on the surface of CHO-TNFR2 cells (human, UniProt P20333 23-461); assay: competition flow cytometry on CHO-TNFR2 cells, competitor TNFα-biotin; IC50 against 224-WT
T1 construct: whole, on cells
T1 sequence (looked up): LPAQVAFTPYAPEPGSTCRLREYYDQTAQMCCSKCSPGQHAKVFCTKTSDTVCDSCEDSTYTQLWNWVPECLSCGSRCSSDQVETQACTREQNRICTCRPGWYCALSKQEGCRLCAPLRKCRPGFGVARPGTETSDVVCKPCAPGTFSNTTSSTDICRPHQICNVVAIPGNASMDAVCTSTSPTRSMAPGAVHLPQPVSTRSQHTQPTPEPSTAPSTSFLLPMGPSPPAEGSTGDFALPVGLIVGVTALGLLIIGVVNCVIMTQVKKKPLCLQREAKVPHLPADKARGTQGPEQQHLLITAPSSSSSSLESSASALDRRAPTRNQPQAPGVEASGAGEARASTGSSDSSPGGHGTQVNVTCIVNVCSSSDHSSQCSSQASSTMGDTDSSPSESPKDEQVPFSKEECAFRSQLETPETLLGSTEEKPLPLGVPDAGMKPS
Protocol: CHO stable cells highly expressing human TNFR2 were used for the experiment (the same as CHO-TNFR2 in Example 4). The CHO-TNFR2 cells were digested, washed twice with DPBS, then stained with Live/Dead (L/D) (20 minutes at room temperature), and plated at a density of 1×10⁵ cells/50 μl/well. A test anti-TNFR2 antibody was diluted to 6 μg/ml with a staining buffer as the starting concentration: the antibody was subjected to 3.33-fold gradient dilution, with a total of 7 concentration points. The diluted antibody was added to the plated cells at 50 μl/well, and the mixture was mixed well by gentle pipetting, and incubated at 4° C. for 30 minutes. Then the diluted 100 ng/ml of human TNFα-biotin was added at 100 μl/well, and the mixture was mixed well by gentle pipetting, and then incubated at 4° C. for 30 minutes. The mixture was washed twice with a staining buffer, and then 0.12 μg/ml PE-streptavidin (BioLegend, Cat #405204) was added at 100 μl/well; the resulting mixture was incubated at 4° C. for 30 minutes. The mixture was washed twice with a staining buffer, and then 150 μl of staining buffer was added to resuspend the cells; signals were detected by a flow cytometer (Thermo Attune NxT). The inhibitory curve of an antibody was drawn with antibody concentration as the abscissa and corresponding MFI value as the ordinate, and fitted with four parameters (GraphPad Prism9) to calculate the IC50 value. The smaller the IC50 value, the stronger the ability of an antibody to inhibit the binding of human TNFα to human TNFR2. The blocking effect of a humanized antibody was normalized to its corresponding human-murine chimeric WT antibody. The higher the percentage value, the better the inhibitory effect of the humanized antibody.

[2] = molecular target: T2, human TNFR2 (Novoprotein, Cat #C830) (human, UniProt P20333 23-257, limits assumed); assay: competition ELISA, competitor human TNFα-Biotin; IC50 against 224-WT
T2 construct: construct not described; also called human TNFR2 protein
T2 sequence (looked up): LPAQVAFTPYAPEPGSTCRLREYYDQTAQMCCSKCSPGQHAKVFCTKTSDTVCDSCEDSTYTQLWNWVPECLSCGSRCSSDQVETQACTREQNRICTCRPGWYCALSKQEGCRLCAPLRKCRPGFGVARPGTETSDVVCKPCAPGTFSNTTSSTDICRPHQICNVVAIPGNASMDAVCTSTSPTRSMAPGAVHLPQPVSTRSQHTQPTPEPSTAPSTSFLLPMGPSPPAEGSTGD
Protocol: 1 μg/ml human TNFR2 (Novoprotein, Cat #C830) was pre-coated with 100 μl/well […] in an ELISA plate. All the test TNFR2 antibodies were subjected to 2.5-fold gradient dilution from the highest concentration of 30 μg/ml; the diluted antibodies were mixed with 15 ng/ml human TNFα-Biotin (Acro Biosystem, Cat #TNA-H82E3) in equal volume, respectively; the resulting mixture was added to the ELISA plate at 100 μl/well, and incubated with shaking at room temperature for 2.0 hours. The plate was washed, and then a Streptavidin-HRP working solution (diluted at 1:10000) was added at 100 μl/well, and the mixture was incubated with shaking at room temperature for 40 minutes. The plate was washed again, and then the substrate TMB of HRP was added to develop colour. A stop solution was added to stop the reaction, and then a microplate reader (MD 13) was used to read the absorbance value. The inhibitory curve of an antibody was drawn with antibody concentration as the abscissa and corresponding OD value as the ordinate, and fitted with four parameters (GraphPad Prism9) to calculate the IC50 value. The smaller the IC50 value, the stronger the ability of an antibody to inhibit the binding of human TNFα to human TNFR2. The blocking effect of a humanized antibody was normalized to its corresponding human-murine chimeric antibody WT. The higher the percentage value, the better the inhibitory effect of the humanized antibody.

[3] = molecular target: T3, Human TNFR2-His (Sino 10417-H08H) (human, UniProt P20333 23-257); assay: ELISA, human TNFR2-His coated; EC50 against 224-WT
T3 construct: Bought protein; also called recombinant human TNFR2 protein; not shown: His tag
T3 sequence (looked up): T2 sequence (looked up)
Protocol: The test humanized antibody against TNFR2 (as described in Example 1, the antibody was comprised of variable regions linked to IgG-Fc; the WT chimeric antibody also adopted the IgG-Fc structure) was subjected to 3.33-fold gradient dilution, loaded with 100 μl/well, and incubated with shaking at room temperature for 1.5 hours. The plate was washed, and then a working solution of murine anti-human IgG Fc-HRP (diluted at 1:10000) was added, loaded with 100 μl/well, and incubated with shaking at room temperature for 1.0 hour. The plate was washed again, and then the substrate TMB of HRP was added to develop colour. A stop solution was added to stop the reaction, and then a microplate reader (MD 13) was used to read the absorbance value. The binding curve of an antibody was drawn with antibody concentration as the abscissa and corresponding OD value as the ordinate, and fitted with four parameters (GraphPad Prism9) to calculate the EC50 value. The smaller the EC50 value, the stronger the binding ability of an antibody to human/cynomolgus monkey TNFR2. The binding effect of a humanized antibody was normalized to its corresponding human-murine chimeric antibody WT (see SEQ ID NOs: 38-43 for the sequence). The higher the percentage value, the better the binding effect of the humanized antibody. The results of binding of an anti-TNFR2 antibody to a human TNFR2 protein are shown in FIG. 1 and Table 4, and the results of binding of an anti-TNFR2 antibody to cynomolgus monkey TNFR2 are shown in FIG. 2 and Table 4.

B1: 224-Hu1 (antibody, V domains shown)
VH: QVQLVQSGAEVKKPGASVKVSCKASGFNNKDIYMHWVRQAPGQGLEWIGRIDPATGNTKHDPKFQDRVTMTSDTSTNTVYMELSSLRSEDTAVYYCARSPYGDFGAMDYWGQGTLVTVSS
VL: DIQMTQSPSSLSASVGDRVTITCTASSSVSSNYLHWYQQKPGKAPKLWIYSTSNLPSGVPSRFSGSGSGTDFTLTISSLQPEDFATYYCHQYHRSPWTFGQGTKVEIK
notes: Humanized form of #224; also called VH8 + VL6
- % Relative activity (WT antibody/test antibody) [1]: 108%
- % Relative activity (WT antibody/test antibody) [2]: 106%
- % Relative activity (WT antibody/test antibody) [3]: 143%

B2: 224-Hu7 (antibody, V domains shown)
VH: QVQLVQSGSELKKPGASVKVSCKASGFNNKDIYMHWVRQAPGQGLEWMGRIDPATGNTKHDPKFQDKAVLSSDTSVSTAYLQISSLKAEDTAVYYCARSPYGDFGAMDYWGQGTLVTVSS
VL: B1 VL with W48L
notes: Humanized form of #224; also called VH9 + VL10
- % Relative activity (WT antibody/test antibody) [1]: 73%
- % Relative activity (WT antibody/test antibody) [2]: 106%
- % Relative activity (WT antibody/test antibody) [3]: 110%

B4: 224-Hu4 (antibody, V domains shown)
VH: B2 VH
VL: B1 VL
notes: Humanized form of #224; also called VH9 + VL6
- % Relative activity (WT antibody/test antibody) [1]: 102%
- % Relative activity (WT antibody/test antibody) [2]: 105%
- % Relative activity (WT antibody/test antibody) [3]: 108%

B5: 224-Hu5 (antibody, V domains shown)
VH: B2 VH
VL: B1 VL with W48L, F72Y, T73S
notes: Humanized form of #224; also called VH9 + VL9
- % Relative activity (WT antibody/test antibody) [1]: 95%
- % Relative activity (WT antibody/test antibody) [2]: 93.1%
- % Relative activity (WT antibody/test antibody) [3]: 99.4%

B7: 224-Hu6 (antibody, V domains shown)
VH: B1 VH
VL: B1 VL with K43S, A44S
notes: Humanized form of #224; also called VH8 + VL7
- % Relative activity (WT antibody/test antibody) [1]: 96%
- % Relative activity (WT antibody/test antibody) [2]: 115%
- % Relative activity (WT antibody/test antibody) [3]: 104%

The next lines start with the values.

- % Relative activity (WT antibody/test antibody) [1]: 124%
- % Relative activity (WT antibody/test antibody) [2]: 121%
- % Relative activity (WT antibody/test antibody) [3]: 138%
B3: 224-Hu2 (antibody, V domains shown)
VH: B2 VH
VL: B1 VL with K43S, A44S
notes: Humanized form of #224; also called VH9 + VL7

- % Relative activity (WT antibody/test antibody) [1]: 107%
- % Relative activity (WT antibody/test antibody) [2]: 120%
- % Relative activity (WT antibody/test antibody) [3]: 122%
B6: 224-Hu3 (antibody, V domains shown)
VH: B2 VH
VL: B1 VL with W48L, P81A, F84A
notes: Humanized form of #224; also called VH9 + VL8

Reference: US20240109974A1 (SHANDONG SIMCERE BIOPHARMACEUTICAL, published 2024)
